Test: label from the status in PepcDB records

Sequence	protein production
MSVPSPVNESLLSQRLAALGAARSWAPNVLPELEHFIRTADDYDLLRVNPIQYGGAVRMSEADAIELFVHAAKVGLFDMDWLLICAYCPQVAGSFRELDQVHPRFQCAFCNAINDVALDDYIQVAFTVSSGVRDIIFRHPERLSVEDFYLRYNFSKGFIAPHGMTHQQLVAALSRGFADIEAHEHRSFDFEVTAGRFEVLDLSHKLLLVFFADGEPAEPQETLVQLESGRFHVPDRPTAPKDMVLGDGQFSFRQTADLSPGKHTIRIENRTDDRGRFWFVQYPPGFAPHLVEYEPFLSGKRLLLTPSFRELYKAQLVDEGESIKVSDMTFLFTDLKKSTPLYESVGDVNAYFLVRQHFEILNRIIRERSGTIIKTIGDAVMAGFERPQDAVCAAIEMIEELSRFNQTASRPLGLKVGVHRGRAIAVNLNDRIDYFGQDVNIAARVQGLADVDEVCISATAMEAPGVGDIVNSRSVSRNYENLKGIGQKMEVHRMTIPPTQT	failed
MSVRPVDAALEGLQTMRRRPLTALAWATFSLVMLPILGLLVKIGLGDEGRQVLAGRGSSADPRELLDLVMNLGGAMVLLVALALLLGAVLQAAIIRSVLEPTNDRFAYLRLGKEEIQLLIVSLITWATALLCTIIPSGVVVLGSSLLSGAAAAWFAFLGALSVIGFSLWVAVRLSLLGPHAFSHHHIDIRAAWIQTHGQFWRLLGMFVLTIAIWILVSLLGAAVAGVIGKWLTAAVNLGASGLAASNSWLILSLLANMLLAPVFLTLQTVILVAAPARAFAQLNQDEIDAGLHA	failed
MSVSPVQPDPSVIGGVPKAPFVLKPNLARLFNDRASRFEALAQGSHLAPYLNFLAGITRIQSELVSALPPPEPVPADRVERARANAMPPIDRAAMGGSPDCREVLQQFFEKAEALEKPAAAAEALAQVRTADEEMLTWMIGNVMADDLPVESLAHHLYVAAAMQIQAARLAAGLDGSRLVPIRVGVCPACGGRPVASMVIGFHGAEGARYASCSCCATMWNEVRVKCLACGSTKGIGYQAVETGDEEATVKAEVCDTCNSWMKILYQNKNPSLDVVADDVASLGLDLLMKDTEYKRAGFDPFLMGY	not failed
MSVTRRELLKLAGAAGAMSLAPAIVRAQKLEKAKVQIAVGGKPLIYYLPLTIAEVKGFFKDEGLDVSIADFAGGSKALQAVVGGSADVVSGAFEHTLSLQAKGQFYRAFALQGRAPMIGVGVSKKNLPGYKGPADLKGRKIGVTAPGSSTNMVVNFFLAKHGLKASDVSFIGVGAGAGAVTALRSGQIDAISNTDPVVSMLETSGDIQIIVDTRTLKDTKEIFGGNMPAGCLYAPQAFVDANPNTAQALTNAIVRADKWIQKAGADEIAKAVPEGYLLGDPAVYKAAIGKSMEGLSPDGVIPEDGAATALKALAAFVPDFDAAKVDPAKAWTNEYTRRANEKYPNG	not failed
MSVVTESKTARKWAMPDTLVIIFFVAILTSIATWVVPVGMFDSQEVQYQVDGQTKTRKVVDPHSFRIVTNEAGEAQYHRVQFFTTGDERPGLMNFPFEGLTSGSKFGTAVGIIMFMLVIGGAFGIVMRTGTVDNGILALIRHTRGNEVLFIPVLFVLFSLGGAVFGMGKEAVAFAIIIAPLMVRLSYDSITTVLVTYIATQIGFASSWMNPFCVVVAQGIAGVPVLSGSGLRIVVWIVATLIGLVFTLVYASRVKKNPLLSRVHESDRYFREQQDEVVQRPFTFGDWLVLLVLTGVMIWVVWGVIVHAWFIPEIASQFFTMGVVIGLIGVIFRLNGMTVNVMASSFTEGARMMIAPALLVGFAKGILLLVGNGEAGEPSVLNTLLNSIAHGISGLNNAIAAWFMLLFQAVFNFFVTSGSGQAALTMPLLAPLGDLVGVNRQVTVLAFQFGDGFSHIIYPTSASLMATLGVCRVDFRNWLKVGASLLGLLFIMSSVVVIGAQMMGYH	failed
MSVWRRRAEGREPTQAQRLFRGLVREWLWVSLILLPLTAVLSLSHGLALNNLFYDNLRRFTPLPVDPRILLVTIDDYSLQQLGRWPWPRAIHGQLLDRLSAAEAKGVLFDVILSEPGSTVENDTRLAAALCRAGNVFLPVLRQGVARYGQDIEEIPPVPLLRNCARGLGHINAEADADGTVRSVYLREGPMLAPRAQLTWLLYQLTEAEPAFPHMPGPGEPRVAQGWLRSNPVRIPFISADAGFPSVPYVSVLRGEVPPELLRDRLILVGSTAPGLGDRYVTPQSGSQGTTPGVEIQANLLNGLLQHRSVVALGQWSGMLLSMALTAVLLGLLLWRPRHALWITLGCMGLGLAGSVLMLRLGYWWSPVASLLGMLLAYLIWNWRRLSVILAYFGWELARLDSEPKVLPERRRSQAPAGDVLQGQIVALEQALSRTRDTRRFIADGLEYLPVATLISDPDGKILLANRNAREVFAHSLVGEGLIAQLAALGYPGLTEPALYPRLEQLPAVEFRDVQQRSLRMELAPLLPVDSDTAIGWLLSLTDLSVERDAEQQRSVLLRFLSHDLRAPHSAILALLDVQRHQPATPRQVYGQIEQQVRRALALTEAFVQLAKAESEAYQFEPSMFAMLVLDAFDQATTLAQLKDIHLEHDLDDEAEGLVLADQSLLTRALFNLLENAIKYSPVESRVSVRVSCTPGWLRCEISDEGRGIDAADLPQLFGQYQRFASAKGIDGLGLGLSMVKAVVDRHQGRISCQSVVGRGSCFILELPLLEE	failed
MSYEDWAGGIRCSECGREYTGIECPICRQADPTEREVVTEHGNGRGDQQPPENGTVSADSGVYDIDKIEHERHTDAEKVNPEVVDPSDYVTRAVSGVVFNKRHAWKAENRADEDNPPSLFVVTTADSEFNWIEIPLWDDAEGAMEDISIGDPIQAEGKLSKDNGVHNIHVHSQDSIDILTEPPEVKFDSMAIDQITSTTPKVDLEGTVERVGEIKDIQLDDEKVKLREIHVSDLNNDQIQVALWRTNAYEKVAPGDEIIIAGGLAKPHNEKVVVRVGWSGHIGYRSSLEHHHHHH	failed
MSYERPLLAPLRAALSRPTPVVHVLIGPRQVGKTTITRQIQESIGISSIYATADSLVPLDSAWIETQWRRAVAEEAASGGPEIRVLILGSSALLMQQGLTESLAGRFFLHRCTHWGYPALEHHHHHH	failed
MSYMGKKKKDCLFHVDGFEEWMDQFCSDSCSNFSFPNQIHIDLCETEQEYILETDVPNVTEQNVVIKKMETGLNICILHKNISLQRNIPLPTTIIYKKMLACLENGFLAIHISKNEVANKHEEKVLFQIEN	failed
MSYNLNLSHNIYKDAKLGTYYFRITYYDKSNTRKYITRKGFKQRKDAVKKCNEMMDELEGVGHLNRLPFDKLVEEYIDWYSARRKTSSVKALKTHTNNHLLPYFKSMDVFKMTTQDVMKFQNKKLKEGHSGDYLKKMHVYLVSLLNHAMKFHELKQNVASLVGNFEIESQKRLNYWTLEQFNQFYEALATQQQKLFFKLLFYSGARKGEIRALTWRDINFDDDFIHINKTDYHGEVTAPKTKSAIRDIYLPTHMMYDIKDYLIWYKENNIYKDDYVLFGTFYKAYSESTIDRWFTNALKVLDEQLPNGQNFPRIVIHELRHSHASMLVNLGASVMIIAQRLGHSDTTEVYNRYGHLYPSTQKEIVKYL	failed
MSYSNILVAVAVTPESQQLLAKAVSIARPVKGHISLITLASDPEMYNQLAAPMLEDLRNVMQEETQSFLDKLIQDAGYPVDKTFIAYGELSEHILEVCRKHHFDLVICGNHNHSFFSRASCSAKRVITSSEVDVLLVPLTGD	failed
MSYVDISYYKDNFKGDILNDDTLENRLERASDQIDKLTYNRIIGVEFKNLSPFQQDKIKKAVCLQAEFIEQYGEFINMPLSGFSAGSTSVSFNGSIVNGITTTQEVINYIYQTGLNSRRILEHHHHHH	failed
MSYVPPHKRLENVALRASSVPPSLLKKHNKNVGSTNTKIIYANGYISRWFLVGSDPEDSNFQLVPGSSEWRKDAEEKSLVILAKSDLGKLENPWLWVTEKVEDDIIMGFDRAKKTLLGYGGSEDVKLRLIARFGTLRDGPLTKSTLEKLKKMFRTNVPKSYVENVGYRAVHKMGFCVEETKELYHVKVSDNTRPDVTISCKCMAELNALRHLNLDVSCLDQDLDMRLMVDSKRTLTNLSENEITNLKELTDSAVVDPTVKGGLKWPLGKSSCADRYIVCGVWHTVTTTYINQTMRLQIREADRYDFRTGVGGTSSEVNFKLKALSTILLKEEDVERKCVSDMLKDCLKAVWEYFLKEV	failed
MTAAEPYTVELAADVHAYVQPDGGWCLNNAGFVSDGTTTLLVDTAATERRTRALSAAIAAAGVPAPRFVVNTHHHGDHTYGNSHFAPTATIVSHAECRRETLANGRQLHLLWPENDFGDIRIQAADLTYTGHTTVHVGAVDAEVIHPGVAHTVSDSVVWLPHRRVLFTGDLVFEGGTPFILMGSLSGSLRALDVLRQLGAETVVPGHGPVTDPSAFDRTERYLRFVADIAHKSHAAGRTPLEAARETDLGEFAALPESERFVANLHRAYAELDGAPEGAPLDVPAAVRDIAAMNGGRMVACHA	failed
MTAAQDGRIITFYSYKGGTGRTMALANTAWILAANGKRVLAVDWDLEAPGLDRFFRPFLDPHALAATSGIIDIINEYAWAATSGSQRSGAWHQEYAHVEQHAVSLTPERHGLRFAKGGSLDFLSAGRQDRSYSATVSSFEWDNFYERLGGGLFLDALRDDMKASYEYVLIDSRTGLSDNADICTIQMPDMLVDCFTLSDQSLDGAAAVARSVEDGYRKRKIRVLPVPMRIDEGEKEKVDAGRALARLKFDGLPKGLGGEDLSPEELSQYWGAVEIPYRPYYAYEETLATVGDESGIANSLLSAFERLTNVISDGEVASLPPVPEPVRLRCLDAFTRRRPLTTAADVVVAYAAENRMWADWIEAVLKHSGCNVTLYDVSAGPVERPDAATRALVLLSNAFQKSRYGEDVWRAFTGGDPDGAHPALVPLRVDEVRLPDSYLAHEPVDLHRLEEAQCVAGLLSALELPAQPTDGAPAAPRFPGSTPATWNAPQRNQTFTGRNVILTQVREQLRSGMSVVLPQPQALTGLGGVGKTQVALEYVHRFMADYDLVWWTSAESVDNVVASLAELGARIGAPGGEDMALVSRETVQMLARGVPTKRWILIFDNADNPEQLTRYFPAGGGGHILVTSRNQAWATQGQSLPVDVFLRQESIEHLSRRAPGLTAHEADRVATAVGDLPLAVEQAAAWLAETATPIEDYLRQLAEQTTDVLDLNQPADYPETVAATWNISIARLKDRSPASVRLLQLCAFLAPEPISSHLLYSKEMIDELRKVDPTLQESLLLGRVIREIARFALAKVDQVSNSIQVHRLVQAVIRSQLTQEEQRHARHVVHTVLAGARPDGDEPIDDPETWPRFGVIWPHLSASDVRNCTENEPRRLLIDRVRYLWKRGDFPAAQQLAEDLLGHWKPLLGEEDVQYLYLRCQLANVMRSQGRYVESRAINTELLEQQRRVLGAAHPHTYVTMSSLASDLAALGEYTLAVELAREAHDGFSQIFHESHRRTLSAANNLALALRMVGRYGDARSLDQDTYDRRMEVLGPDHPYTLASAGRLGRDLREVGRYEDSVSLLSRAYDAHKRILGKGFPGTLSCAKSLAVSLRRTGRLEDARRLTTATRAQYRTQYDAHTPDSLACDLNMAADLYAADEREAAREVAKEALTEYMKVPGEEHPYTQAALNNLGIFHWGCGDAVEAEAVFRQVLPRMSDVLGDRHPHTLFTEANFANVLADQGRLEEAWALEKRAMDTLRTVLGPQHPETLAVVSNCALTLGALGRTDEARRLREETLAELNRQGRQLGENNGIIQLTGHERRIYRDLEPLAV	failed
MTAAQFAALSPLVVLAIAAVAAMMLVPLARLQIVQASAAAGLAIAAALVLLRIGAPAAPMGALFTDDGPARFGIVFACLVSLGALVFLRTGHPAKEAPSLLVLVAIGAATLAGAGHAATLFLGIEILSLSLIALFAFRLTRQGLEAAYKFLVMSGLASSALLLGIALIFAETGALDFAGWGGRGALTAFGTALLLAGLAFKFSLVPFHMWTPDAFEAAPASAATLAGVVSKSAVAIVILRLALTAHLPEPVWSQGLAALGGASVLIGNLLALRQPQLPRMLGYSTIAHSGYIALIIASGTPHAGEAVLFYLAIYAPAMLGALCVSAALGRAPTLPDLHGLMKRRPLEAIALSLSLLSLAGLPAAGGFIAKLFLLRVLIDGSLWVLVGIVVAGSSLGFFYYAKFFTAPFVGHTHDESEPLPQLDRGLLIVCIALIVIFGVAPAGLMNVVAATMAP	failed

Reference: a protein production outcome set (Wang et al. 2014)
